120 sequences from the supplement of paper PMC10126150 can be followed below.

± gives the standard deviation of the averaged measurements.

The test system of this data set is ATP. Description: switch fluorescence ratio, 500 uM ATP over buffer (Cy3 cluster intensity, sum of 5 cycles each) (fold (ratio)); higher = stronger signal-on switching upon ATP binding; sequences stand for … in TCGTCGGCAGCGTCAGATGTGTATAAGAGACAGTTTTTTTTTTTTTTTTTTTTTTTTT…TC. The note with it: aptamer strand: ATP DNA aptamer (quencher-CACCTGGGGGAGTATTGCGGAGGAAGG + anchor), 100 nM annealed; ATP concentration: 500 uM. The procedure, abridged: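 Imaging in selection buffer was followed by imaging after 15 min with 500 uM ATP at 22 °C, for Cy3-labelled switching-strand clusters annealed to 100 nM quencher-labelled ATP aptamer on a modified Illumina MiSeq flow-cell. Five of these buffer/ATP cycles ran, separated by NaOH stripping and re-annealing. The fluorescence ratio per cluster is summed target-cycle over summed buffer-cycle Cy3 intensity, averaged per switch-domain sequence; clusters outside 100-1000 RFU were removed.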
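Further: ATP exposure 15 min at 22 °C before imaging.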

Consider TAATGGAAAT, for which the switch fluorescence ratio amounted to 0.979 ± 0.022.

On to TAATGGCTCG, for which the switch fluorescence ratio came to 1 ± 0.008.

Regarding TAATGGGCGA, the switch fluorescence ratio came to 0.976 ± 0.064.

Regarding TAATGGGCTT, the switch fluorescence ratio came to 0.997 ± 0.012.

Take TAATGGGGCG: the switch fluorescence ratio amounted to 0.997 ± 0.025.

Consider TAATGGGTGG, for which the switch fluorescence ratio is 1.02 ± 0.083.

Turning to TAATGGTCGT, the switch fluorescence ratio came to 0.989 ± 0.029.

For TAATGGTCTT, the switch fluorescence ratio was 1.02 ± 0.14.

As for TAATGTAAAA, the switch fluorescence ratio is 0.992 ± 0.01.

As to TAATGTGGGA, the switch fluorescence ratio turned out to be 0.96651 ± 0.00012.

TAATGTGTAC: the switch fluorescence ratio worked out at 1.024 ± 0.0044.

Turning to TAATGTGTGT, the switch fluorescence ratio was found to be 1.016 ± 0.0091.

With TAATGTGTTA, the switch fluorescence ratio was 1.04 ± 0.13.

As for TAATGTTTTT, the switch fluorescence ratio turned out to be 0.985 ± 0.039.

Take TAATTAATCT: the switch fluorescence ratio stood at 0.992 ± 0.049.

As to TAATTAATTT, the switch fluorescence ratio was found to be 1.02 ± 0.025.

As to TAATTACAGT, the switch fluorescence ratio was 0.9904 ± 0.0021.

Regarding TAATTATGGG, the switch fluorescence ratio came out at 1.04 ± 0.056.

Turning to TAATTATTAA, the switch fluorescence ratio came out at 1.01 ± 0.019.

Regarding TAATTCGGCA, the switch fluorescence ratio is 0.995 ± 0.0044.

For TAATTGATTA, the switch fluorescence ratio came to 1.0033 ± 0.00096.

On to TAATTGCTTT, for which the switch fluorescence ratio was determined as 0.966 ± 0.029.

Take TAATTGGACT: the switch fluorescence ratio stood at 1.01 ± 0.013.

With TAATTGGGTG, the switch fluorescence ratio stood at 1.09 ± 0.031.

For TAATTTAAAG, the switch fluorescence ratio worked out at 1 ± 0.041.

Take TAATTTAAGT: the switch fluorescence ratio turned out to be 1.01 ± 0.028.

As to TAATTTCCTT, the switch fluorescence ratio was 1.06 ± 0.16.

Regarding TAATTTCTAA, the switch fluorescence ratio stood at 0.9946 ± 0.0029.

As to TAATTTGAGT, the switch fluorescence ratio was 1 ± 0.014.

With TAATTTGATG, the switch fluorescence ratio turned out to be 0.979 ± 0.027.

Turning to TAATTTGGTT, the switch fluorescence ratio came out at 1.01 ± 0.026.

As for TAATTTGTTC, the switch fluorescence ratio worked out at 1 ± 0.026.

With TAATTTTAAA, the switch fluorescence ratio amounted to 0.988 ± 0.018.

As to TAATTTTAAT, the switch fluorescence ratio worked out at 1.025 ± 0.0087.

With TAATTTTATA, the switch fluorescence ratio is 0.9789 ± 0.0046.

For the sequence TAATTTTTGC, the switch fluorescence ratio was 1.02 ± 0.043.

For TAATTTTTTG, the switch fluorescence ratio was 0.997 ± 0.021.

As for TACAAATCTA, the switch fluorescence ratio stood at 1 ± 0.036.

Turning to TACAAATGTT, the switch fluorescence ratio amounted to 1 ± 0.018.

With TACAACATTT, the switch fluorescence ratio amounted to 1.06 ± 0.015.

On to TACAACTAGA, for which the switch fluorescence ratio turned out to be 1 ± 0.024.

Consider TACAAGCTGT, for which the switch fluorescence ratio was found to be 1.01 ± 0.014.

Consider TACAAGGAGA, for which the switch fluorescence ratio is 1 ± 0.012.

As to TACAAGGGTA, the switch fluorescence ratio stood at 1.01 ± 0.06.

With TACAAGTTTT, the switch fluorescence ratio was determined as 0.986 ± 0.0093.

On to TACAATTTGA, for which the switch fluorescence ratio worked out at 0.954 ± 0.018.

For the sequence TACAATTTTA, the switch fluorescence ratio was found to be 1.006 ± 0.0041.

Regarding TACACGCCTT, the switch fluorescence ratio was found to be 1.05 ± 0.015.

Turning to TACAGAAGCG, the switch fluorescence ratio worked out at 1.033 ± 0.0073.

Take TACAGAATGT: the switch fluorescence ratio was 1.03 ± 0.023.

As to TACAGAGGTT, the switch fluorescence ratio turned out to be 1.01 ± 0.059.

Consider TACAGATTTG, for which the switch fluorescence ratio came to 1.01 ± 0.037.

In the case of TACAGCTTCT, the switch fluorescence ratio was determined as 1.005 ± 0.0065.

On to TACAGGGATC, for which the switch fluorescence ratio is 0.993 ± 0.027.

As to TACAGGGCCT, the switch fluorescence ratio is 0.9882 ± 0.0085.

Take TACAGGGGGA: the switch fluorescence ratio turned out to be 1.09 ± 0.14.

Consider TACAGGTCAT, for which the switch fluorescence ratio is 1 ± 0.018.

For TACAGGTCGG, the switch fluorescence ratio is 1 ± 0.033.

Take TACAGTAGAT: the switch fluorescence ratio came to 1.06 ± 0.038.

TACAGTGGAG: the switch fluorescence ratio turned out to be 1.011 ± 0.0044.

TACAGTTGTA: the switch fluorescence ratio was determined as 0.971 ± 0.06.

As to TACATATGTC, the switch fluorescence ratio was determined as 1.04 ± 0.077.

TACATCGTGC: the switch fluorescence ratio was 0.992 ± 0.016.

As to TACATGCATG, the switch fluorescence ratio worked out at 1.001 ± 0.0031.

Turning to TACATGGACC, the switch fluorescence ratio was 1.12 ± 0.025.

As for TACATTAATA, the switch fluorescence ratio was determined as 1.054 ± 0.0049.

Consider TACATTCGTC, for which the switch fluorescence ratio was determined as 1.07 ± 0.075.

Regarding TACATTTCCA, the switch fluorescence ratio amounted to 1.04 ± 0.04.

For TACATTTTTT, the switch fluorescence ratio was 1.01 ± 0.022.

On to TACCACCGGT, for which the switch fluorescence ratio was found to be 1.02 ± 0.047.

Regarding TACCAGAGCA, the switch fluorescence ratio was found to be 1.08 ± 0.022.

On to TACCCTGAAA, for which the switch fluorescence ratio stood at 1.022 ± 0.0035.

TACCCTTCGT: the switch fluorescence ratio is 1.11 ± 0.013.

Turning to TACCGGGTGG, the switch fluorescence ratio came out at 1.06 ± 0.027.

Consider TACCTAAACG, for which the switch fluorescence ratio is 1.08 ± 0.033.

With TACCTTTTAA, the switch fluorescence ratio worked out at 1.02 ± 0.026.

For the sequence TACCTTTTGG, the switch fluorescence ratio was 0.99 ± 0.026.

Consider TACGAAATTG, for which the switch fluorescence ratio amounted to 1.06 ± 0.049.

Regarding TACGAGTGGT, the switch fluorescence ratio was determined as 0.99394 ± 0.00054.

For TACGATAGTC, the switch fluorescence ratio came out at 1.06 ± 0.069.

Regarding TACGATGTGG, the switch fluorescence ratio is 1.007 ± 0.0088.

For the sequence TACGATTAGT, the switch fluorescence ratio amounted to 0.9995 ± 0.0053.

As to TACGCACGTA, the switch fluorescence ratio came out at 1.31 ± 0.17.

As to TACGCATAAT, the switch fluorescence ratio stood at 1.37 ± 0.014.

For the sequence TACGCTATAA, the switch fluorescence ratio is 2.824 ± 0.0042.

With TACGGAAAGT, the switch fluorescence ratio is 1.02 ± 0.015.

Regarding TACGGAGGGC, the switch fluorescence ratio amounted to 1.02 ± 0.05.

On to TACGGCAGTG, for which the switch fluorescence ratio worked out at 0.998 ± 0.025.

Take TACGGCGCGA: the switch fluorescence ratio was determined as 1.39 ± 0.58.

As to TACGGCTAAG, the switch fluorescence ratio came out at 1.07 ± 0.047.

Regarding TACGGGGCGG, the switch fluorescence ratio was determined as 1.36 ± 0.64.

In the case of TACGGGGTG, the switch fluorescence ratio came out at 1.05 ± 0.035.

TACGGGGTTT: the switch fluorescence ratio is 0.996 ± 0.051.

Turning to TACGGGTGGG, the switch fluorescence ratio is 1.169 ± 0.01.

As for TACGGTAGGA, the switch fluorescence ratio was found to be 0.9836 ± 0.006.

Consider TACGGTGGGC, for which the switch fluorescence ratio is 0.977 ± 0.018.

With TACGGTTTGG, the switch fluorescence ratio is 0.988 ± 0.056.

On to TACGGTTTTT, for which the switch fluorescence ratio came out at 0.967 ± 0.019.

Turning to TACGTACAGC, the switch fluorescence ratio was found to be 1.7 ± 0.076.

On to TACGTGGCGG, for which the switch fluorescence ratio is 1.02 ± 0.02.

TACGTGGTTG: the switch fluorescence ratio stood at 0.99 ± 0.014.

In the case of TACGTTCAGG, the switch fluorescence ratio came to 1.02 ± 0.011.

On to TACGTTTCC, for which the switch fluorescence ratio is 1.138 ± 0.0089.

For TACTAACCAT, the switch fluorescence ratio was 1.12 ± 0.066.

As for TACTAAGTGG, the switch fluorescence ratio came out at 1.05 ± 0.015.

Take TACTAGGGGA: the switch fluorescence ratio turned out to be 1.004 ± 0.0034.

Regarding TACTAGGTTT, the switch fluorescence ratio stood at 0.977 ± 0.019.

For the sequence TACTAGTACA, the switch fluorescence ratio amounted to 1.09 ± 0.018.

On to TACTATGGGC, for which the switch fluorescence ratio came to 1.03 ± 0.055.

Regarding TACTATGGTC, the switch fluorescence ratio worked out at 1.01 ± 0.07.

As for TACTATTTGT, the switch fluorescence ratio came to 1.04 ± 0.063.

Regarding TACTATTTTT, the switch fluorescence ratio is 1 ± 0.018.

For the sequence TACTCACTTC, the switch fluorescence ratio was 1.21 ± 0.035.

On to TACTCAGTGG, for which the switch fluorescence ratio was 1.01 ± 0.022.

As for TACTCCAAGA, the switch fluorescence ratio amounted to 2.98 ± 1.1.

TACTCGTTGA: the switch fluorescence ratio was 1.04 ± 0.021.

On to TACTCTCCTT, for which the switch fluorescence ratio came to 1.09 ± 0.016.

TACTGAATTA: the switch fluorescence ratio came out at 1.03 ± 0.03.

For TACTGATTTG, the switch fluorescence ratio turned out to be 1.02 ± 0.017.

As to TACTGGGACG, the switch fluorescence ratio was 1.004 ± 0.0068.
